Laboratory results as given in publication PMC12186524.

Key:
[1] = biological target: ArbB2 Pro242Ala (Coffea arabica)
[2] = biological target: ArbB2 Met160Ala (Coffea arabica)

loss of activity (relative conversion of ArbA2-FLWGY to product) against ArbB2 (% loss of activity) [1]: 90 | loss of activity (relative conversion of ArbA2-FLWGY to product) against ArbB2 (% loss of activity) [2]: 60
Binder: GNTLKDFESKPGSFLWGYQG [ArbA2_(58–77) (ArbA2-FLWGY)]
